Test results taken from publication PMC10786891, “Massively parallel profiling of RNA-targeting CRISPR-Cas13d”.
Positions count from the first letter of the chain named. In names and notes the source's numbering stands.

T1: EsCas13d, nuclease-dead (Eubacterium siraeum, UniProt B0MS50, R295A;H300A;R849A;H854A)
T1 sequence: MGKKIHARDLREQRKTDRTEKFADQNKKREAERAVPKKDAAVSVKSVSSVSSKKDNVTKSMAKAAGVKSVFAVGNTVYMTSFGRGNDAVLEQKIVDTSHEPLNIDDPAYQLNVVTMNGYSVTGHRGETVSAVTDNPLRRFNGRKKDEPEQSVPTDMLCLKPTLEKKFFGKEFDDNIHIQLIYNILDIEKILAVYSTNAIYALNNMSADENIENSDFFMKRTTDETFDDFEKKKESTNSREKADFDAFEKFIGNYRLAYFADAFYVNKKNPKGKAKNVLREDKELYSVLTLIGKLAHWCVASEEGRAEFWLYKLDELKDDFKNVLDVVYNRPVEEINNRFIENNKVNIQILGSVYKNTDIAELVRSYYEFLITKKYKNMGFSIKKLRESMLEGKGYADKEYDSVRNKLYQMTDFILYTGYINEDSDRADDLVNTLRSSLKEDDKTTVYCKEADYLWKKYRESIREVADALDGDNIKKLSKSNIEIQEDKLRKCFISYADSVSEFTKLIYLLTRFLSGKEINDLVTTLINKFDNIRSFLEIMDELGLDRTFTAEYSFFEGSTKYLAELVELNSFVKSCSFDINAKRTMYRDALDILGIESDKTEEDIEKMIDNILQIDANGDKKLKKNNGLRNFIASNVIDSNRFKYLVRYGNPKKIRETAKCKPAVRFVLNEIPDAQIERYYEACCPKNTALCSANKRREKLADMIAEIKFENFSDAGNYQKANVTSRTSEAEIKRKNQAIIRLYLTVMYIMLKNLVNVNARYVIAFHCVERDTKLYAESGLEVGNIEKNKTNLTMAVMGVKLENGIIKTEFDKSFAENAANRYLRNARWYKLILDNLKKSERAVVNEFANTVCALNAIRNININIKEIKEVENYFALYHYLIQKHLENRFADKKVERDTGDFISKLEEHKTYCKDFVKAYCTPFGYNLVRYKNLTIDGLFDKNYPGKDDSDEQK

B1: target 1 insC 3' of 3,insG 3' of 3 (mixed)
RNA 1: CACCCGUGCAAAAAUGCAGGGGUCUAAAACUGAGCGGAUAACCUCUCUAUGG
RNA 2: GGGAAUGGAUCCACAUCUACGAAUUCGUACCAUAGAGAGGUUAUCCGCUCGCACCGAGAUCGGAAGAGCACACGU
B2: target 1 A1G,G13A (mixed)
RNA 1: B1 RNA 1
RNA 2: GGGAAUGGAUCCACAUCUACGAAUUCGUACCAUAGAGAAGUUAUCCGCUCGCCGAGAUCGGAAGAGCACACGU
B3: target 1 G13A (mixed)
RNA 1: B1 RNA 1
RNA 2: B2 RNA 2 with G51A
B4: target 1 A1C,G13A (mixed)
RNA 1: B1 RNA 1
RNA 2: B2 RNA 2 with G51C
B5: target 1 A18U,C22A (mixed)
RNA 1: B1 RNA 1
RNA 2: B2 RNA 2 with C30A, A34U, A39G, G51A
B6: target 2 MT 5'PFS UCU 3'PFS AGA (mixed)
RNA 1: CACCCGUGCAAAAUUGCAGGGGUCUAAAACCUUCUCCAAAUUGUUUCAUCCU
RNA 2: GGGAAUGGAUCCACAUCUACGAAUUCUCUAGGAUGAAACAAUUUGGAGAAGAGAAGAUCGGAAGAGCACACGU
B7: target 2 MT 5'PFS GGU 3'PFS UCU (mixed)
RNA 1: B6 RNA 1
RNA 2: B6 RNA 2 with U27G, C28G, A52U, G53C, A54U
B8: target 2 MT 5'PFS GGA 3'PFS CUU (mixed)
RNA 1: B6 RNA 1
RNA 2: B6 RNA 2 with U27G, C28G, U29A, A52C, G53U, A54U
B9: target 2 MT 5'PFS CGC 3'PFS CAU (mixed)
RNA 1: B6 RNA 1
RNA 2: B6 RNA 2 with U27C, C28G, U29C, A52C, G53A, A54U
B10: target 2 MT 5'PFS GUA 3'PFS AAC (mixed)
RNA 1: B6 RNA 1
RNA 2: B6 RNA 2 with U27G, C28U, U29A, G53A, A54C
B11: target 2 MT 5'PFS GGA 3'PFS CUG (mixed)
RNA 1: B6 RNA 1
RNA 2: B6 RNA 2 with U27G, C28G, U29A, A52C, G53U, A54G
B12: target 2 MT 5'PFS UGA 3'PFS UCC (mixed)
RNA 1: B6 RNA 1
RNA 2: B6 RNA 2 with C28G, U29A, A52U, G53C, A54C
B13: target 2 MT 5'PFS GCC 3'PFS CGA (mixed)
RNA 1: B6 RNA 1
RNA 2: B6 RNA 2 with U27G, U29C, A52C
B14: target 2 MT 5'PFS GAU 3'PFS CAC (mixed)
RNA 1: B6 RNA 1
RNA 2: B6 RNA 2 with U27G, C28A, A52C, G53A, A54C
B15: target 2 MT 5'PFS GGU 3'PFS UCC (mixed)
RNA 1: B6 RNA 1
RNA 2: B6 RNA 2 with U27G, C28G, A52U, G53C, A54C
B16: target 2 MT 5'PFS CGC 3'PFS CAA (mixed)
RNA 1: B6 RNA 1
RNA 2: B6 RNA 2 with U27C, C28G, U29C, A52C, G53A
B17: target 2 MT 5'PFS UCG 3'PFS AGG (mixed)
RNA 1: B6 RNA 1
RNA 2: B6 RNA 2 with U29G, A54G
B18: target 2 MT 5'PFS AAC 3'PFS AUA (mixed)
RNA 1: B6 RNA 1
RNA 2: B6 RNA 2 with U27A, C28A, U29C, G53U
B19: target 2 MT 5'PFS UGA 3'PFS UCG (mixed)
RNA 1: B6 RNA 1
RNA 2: B6 RNA 2 with C28G, U29A, A52U, G53C, A54G
B20: target 2 MT 5'PFS AAC 3'PFS UUG (mixed)
RNA 1: B6 RNA 1
RNA 2: B6 RNA 2 with U27A, C28A, U29C, A52U, G53U, A54G
B21: target 2 MT 5'PFS GAU 3'PFS CAG (mixed)
RNA 1: B6 RNA 1
RNA 2: B6 RNA 2 with U27G, C28A, A52C, G53A, A54G
B22: target 2 MT 5'PFS GGA 3'PFS CUC (mixed)
RNA 1: B6 RNA 1
RNA 2: B6 RNA 2 with U27G, C28G, U29A, A52C, G53U, A54C
B23: target 2 MT 5'PFS CGC 3'PFS CAG (mixed)
RNA 1: B6 RNA 1
RNA 2: B6 RNA 2 with U27C, C28G, U29C, A52C, G53A, A54G
B24: target 2 MT 5'PFS GAU 3'PFS CAA (mixed)
RNA 1: B6 RNA 1
RNA 2: B6 RNA 2 with U27G, C28A, A52C, G53A
B25: target 2 MT 5'PFS GCC 3'PFS AGG (mixed)
RNA 1: B6 RNA 1
RNA 2: B6 RNA 2 with U27G, U29C, A54G
B26: target 2 MT 5'PFS CCC 3'PFS CCU (mixed)
RNA 1: B6 RNA 1
RNA 2: B6 RNA 2 with U27C, U29C, A52C, G53C, A54U
B27: target 2 MT 5'PFS GGA 3'PFS CUA (mixed)
RNA 1: B6 RNA 1
RNA 2: B6 RNA 2 with U27G, C28G, U29A, A52C, G53U
B28: target 2 MT 5'PFS GCC 3'PFS CGG (mixed)
RNA 1: B6 RNA 1
RNA 2: B6 RNA 2 with U27G, U29C, A52C, A54G
B29: target 2 MT 5'PFS UGA 3'PFS UCA (mixed)
RNA 1: B6 RNA 1
RNA 2: B6 RNA 2 with C28G, U29A, A52U, G53C
B30: target 2 MT 5'PFS CGC 3'PFS CAC (mixed)
RNA 1: B6 RNA 1
RNA 2: B6 RNA 2 with U27C, C28G, U29C, A52C, G53A, A54C
B31: target 2 MT 5'PFS GCC 3'PFS AGC (mixed)
RNA 1: B6 RNA 1
RNA 2: B6 RNA 2 with U27G, U29C, A54C
B32: target 2 MT 5'PFS UCG 3'PFS AGA (mixed)
RNA 1: B6 RNA 1
RNA 2: B6 RNA 2 with U29G
B33: target 2 MT 5'PFS AAC 3'PFS AUC (mixed)
RNA 1: B6 RNA 1
RNA 2: B6 RNA 2 with U27A, C28A, U29C, G53U, A54C
B34: target 2 MT 5'PFS AAC 3'PFS AUU (mixed)
RNA 1: B6 RNA 1
RNA 2: B6 RNA 2 with U27A, C28A, U29C, G53U, A54U
B35: target 2 MT 5'PFS GCC 3'PFS AGA (mixed)
RNA 1: B6 RNA 1
RNA 2: B6 RNA 2 with U27G, U29C
B36: target 2 MT 5'PFS GCC 3'PFS CGC (mixed)
RNA 1: B6 RNA 1
RNA 2: B6 RNA 2 with U27G, U29C, A52C, A54C
B37: target 2 MT 5'PFS GGU 3'PFS UCG (mixed)
RNA 1: B6 RNA 1
RNA 2: B6 RNA 2 with U27G, C28G, A52U, G53C, A54G
B38: target 2 MT 5'PFS GAU 3'PFS CAU (mixed)
RNA 1: B6 RNA 1
RNA 2: B6 RNA 2 with U27G, C28A, A52C, G53A, A54U

Target: T1, EsCas13d, nuclease-dead
Experiment: crRNA (strand 1, pre-loaded); Mg2+; 40 mM Tris-HCl pH 7.5, 150 mM NaCl, 6 mM MgCl2, 1 mM DTT, 0.1% Tween-20, 0.2 mg/ml BSA; 25 C; 10 min per concentration, then washed
Conditions: tags: His6-TwinStrep-SUMO cleaved; N-terminal SNAP kept (SNAP-Surface 488); label: 3' end held by stalled T7 RNA polymerase

Binder | Kd [nM]
B1 | 8.5 ± 0.6
B2 | 6.2 ± 0.8
B3 | 4.9 ± 0.4
B4 | 14.8 ± 2.5
B5 | 58 ± 6
B6 | 40 ± 18
B7 | 38 ± 7
B8 | 10.5 ± 0.8
B9 | 4.5 ± 0.7
B10 | 6.2 ± 0.5
B11 | 9.2 ± 0.8
B12 | ~49
B13 | 14 ± 3.3
B14 | 11.3 ± 2.4
B15 | 76 ± 19
B16 | 7.4 ± 2.5
B17 | 35 ± 9
B18 | 6.1 ± 1.4
B19 | 13 ± 1.7

Binder | Kd [nM]
B20 | 8.5 ± 1.3
B21 | 8.7 ± 0.6
B22 | 13.4 ± 1.5
B23 | 3.6 ± 0.6
B24 | 14 ± 5
B25 | 16.4 ± 2.4
B26 | 7.6 ± 1.8
B27 | 9.9 ± 1.3
B28 | 13.5 ± 2.2
B29 | 14 ± 6
B30 | 5.1 ± 0.5
B31 | 10.5 ± 1.2
B32 | 17.9 ± 2.3
B33 | 3.8 ± 0.9
B34 | 6.1 ± 1.8
B35 | 10.5 ± 1.8
B36 | 11.4 ± 1.6
B37 | 29 ± 4
B38 | 9 ± 1.4
